Settings in all cases: both partners purified
In one assay the target is T1, FP8v1-rTTHC (HIV-1, fusion peptide 512-519 (BG505 …)).
T1 construct: also called fusion peptide
T1 chain: AVGIGAVF
Kind of assay: ELISA. (In general: ELISA stands for enzyme-linked immunosorbent assay.)

For the next assay, the target named is T2, FP6v1-rTTHC (HIV-1, fusion peptide 512-517).
T2 construct: also called shorter peptides
T2 chain: AVGIGA
The experiment in a line: ELISA; plates coated with 2 μg/mL fusion peptide-rTTHC; 2C06 or 2C09 antibody serially diluted from 2 μg/mL, 1 h 37°C; anti-human IgG-HRP.

The target of a further assay is T3, FP7v1-rTTHC (HIV-1, fusion peptide 512-518).
T3 construct: also called shorter peptides
T3 chain: AVGIGAV
Described as above.

B1: N751-2C09.01 IgG (antibody, V domains shown)
VH: EVQLVESGEGLVQPGGSLRLSCAASGFTFSSHAMHWVRQAPGKGLEYVSAISSEGGSTYYADSVRGRFIISRDNSKNTLYLQMGSLRAEDMAVYYCARVTGDYNWYFDLWGRGTLVTVSS
VL: EIVMTQSPATLSVSPGERATLSCRASQGVSSNLAWYQQKPGQAPRLLIHGASTRATGSPARFSGSGSGTEFTLTISSLQSEDFAVYSCQQYHNWPWTFGQGTKVEIK
On to B1, for which the binding result with FP8v1-rTTHC, with FP6v1-rTTHC and with FP7v1-rTTHC was “binds” throughout.

B2: N751-2C06.01 IgG (antibody, V domains shown)
VH: EVQLVESGGGLVQPGGSLRLSCSASGFTFSSYAMHWVRQAPGKGLEYVSAISGNGDSTYYADSVRGRFTISRDNSKNTLYLQMSSLRAEDTAVYYCVKQAAYCTRTSCYYFDYWGQGTLVTVSS
VL: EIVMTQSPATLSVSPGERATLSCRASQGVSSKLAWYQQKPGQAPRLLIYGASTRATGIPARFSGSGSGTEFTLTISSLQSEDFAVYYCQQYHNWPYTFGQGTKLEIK
Turning to B2, the binding result with FP8v1-rTTHC was “binds”.

The record behind these values is PMC10491024 (Cell reports, 2023).
